Results: article PMC11983102, “Conjugation to a transferrin receptor 1-binding Bicycle peptide enhances ASO and siRNA potency in skeletal and cardiac muscles” (Nucleic Acids Research, 2025)

Molecular target: human His6-TfR1, P02786
Assay: SPR
Settings: chain shown with the change

human His6-TfR1, P02786, sequence (P02786 89-760): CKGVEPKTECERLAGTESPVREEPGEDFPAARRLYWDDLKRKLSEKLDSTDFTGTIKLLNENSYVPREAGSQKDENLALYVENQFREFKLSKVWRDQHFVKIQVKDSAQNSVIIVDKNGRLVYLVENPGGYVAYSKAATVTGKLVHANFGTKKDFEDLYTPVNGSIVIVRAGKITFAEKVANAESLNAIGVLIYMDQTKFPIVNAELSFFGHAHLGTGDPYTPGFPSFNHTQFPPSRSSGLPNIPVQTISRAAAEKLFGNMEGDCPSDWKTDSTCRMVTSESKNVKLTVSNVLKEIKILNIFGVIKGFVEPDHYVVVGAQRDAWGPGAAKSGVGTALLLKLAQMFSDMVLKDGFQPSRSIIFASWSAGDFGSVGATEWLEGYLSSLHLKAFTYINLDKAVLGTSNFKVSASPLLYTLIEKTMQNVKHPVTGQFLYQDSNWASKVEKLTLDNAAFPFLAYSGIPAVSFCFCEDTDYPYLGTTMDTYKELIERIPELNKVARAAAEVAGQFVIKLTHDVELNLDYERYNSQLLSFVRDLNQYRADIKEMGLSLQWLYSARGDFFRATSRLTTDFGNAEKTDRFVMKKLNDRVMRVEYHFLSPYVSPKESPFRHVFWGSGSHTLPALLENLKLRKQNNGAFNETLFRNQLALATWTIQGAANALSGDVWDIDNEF

B1: BCY15468 Ni:A del; Ti:A del; Nii:Ac (N-terminal acetyl cap) (peptide)
chain: CSPDAHLGCISYC
  Kd: 46 nM
